Measurements as given in US20220267421A1 (INVOX PHARMA, published 2022).
Numbering of substitutions follows the chain as printed.

B1: G1-AA/FS28-026 (antibody, human IgG1, kappa, L234A L235A, V domains shown)
VH: EVQLLESGGGLVQPGGSLRLSCAASGFTFSNYAMTWVRQAPGKGLEWVSSITPYYSKTDYADSVKGRFTISRDNSKNTLYLQMNSLRAEDTAVYYCARNWYRFDYWGQGTLVTVSS
VL: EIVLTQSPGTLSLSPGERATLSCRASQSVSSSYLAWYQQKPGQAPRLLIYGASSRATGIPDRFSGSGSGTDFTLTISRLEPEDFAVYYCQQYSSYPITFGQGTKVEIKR
notes: IgG1 LALA; also called FS28-026 mAb (in G1-AA format)
B2: G1-AA/FS28-091 (antibody, human IgG1, kappa, L234A L235A, V domains shown)
VH: B1 VH with S30T, T35S, T52K, Y55D, S56G, K57N, D59Y, W100R, Y101W, R102V
VL: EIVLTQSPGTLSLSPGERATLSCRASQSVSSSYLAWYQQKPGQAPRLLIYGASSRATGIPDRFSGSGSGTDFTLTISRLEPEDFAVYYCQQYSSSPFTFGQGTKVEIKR
notes: IgG1 LALA; also called FS28-091 mAb (in G1-AA format)
B3: G1-AA/FS28-024 (antibody, human IgG1, kappa, L234A L235A, V domains shown)
VH: EVQLLESGGGLVQPGGSLRLSCAASGFTLSYSSMSWVRQAPGKGLEWVSFITPSTGYTHYADSVKGRFTISRDNSKNTLYLQMNSLRAEDTAVYYCARRALTFDYWGQGTLVTVSS
VL: EIVLTQSPGTLSLSPGERATLSCRASQSVSSSYLAWYQQKPGQAPRLLIYGASSRATGIPDRFSGSGSGTDFTLTISRLEPEDFAVYYCQQASSYPLTFGQGTKVEIKR
notes: Complete human IgG1 with LALA mutation; also called FS28-024 mAb (in G1-AA format)

These binders were tested against T1, cell surface human mesothelin (MSLN) (human, UniProt Q13421 296-598) (assay: flow cytometry on NCI-H226 cells (endogenous cell surface MSLN), detection with anti-human IgG-PE, geometric mean MFI).
T1 construct: whole, on cells; also called cell surface MSLN
T1 sequence (Q13421 other isoform, or with tags, fused parts or gaps limits assumed): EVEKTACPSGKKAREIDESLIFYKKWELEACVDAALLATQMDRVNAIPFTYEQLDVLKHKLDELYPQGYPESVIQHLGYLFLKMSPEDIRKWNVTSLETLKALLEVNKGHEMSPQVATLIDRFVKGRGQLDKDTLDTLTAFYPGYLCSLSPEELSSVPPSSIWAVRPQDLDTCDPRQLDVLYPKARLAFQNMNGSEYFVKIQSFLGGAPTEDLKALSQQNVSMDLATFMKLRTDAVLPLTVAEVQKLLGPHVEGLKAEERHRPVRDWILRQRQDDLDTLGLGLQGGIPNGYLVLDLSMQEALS
Procedure: (§1) Briefly, NCI-H226 cells (ATCC CRL-5826) were harvested from T175 cell culture flasks using StemPro Accutase (Gibco, A11105-01). Cells were centrifuged at 1200 rpm for 3 min and resuspended in ice cold FACS buffer made up of DPBS (Life Technologies, 14190169) and 1% BSA (Sigma-Aldrich, A7906) at 2×10⁶ cells/ml and 50 μl per well was seeded in a 96-well V-bottom plate (Costar, 3894). All mAbs tested were diluted in FACS buffer in 120 μl at a concentration range of 0.01-200 nM (4-fold dilutions). The NCI-H226 cells were then centrifuged, supernatant removed and cells resuspended in 100 μl of each mAb dilution and incubated at 4° C. for 45 min. Cells were washed twice by centrifugation with 150 μl FACS buffer, resuspended in 100 μl containing goat anti-human IgG (γ-chain specific) F(ab′)2 fragment-R-Phycoerythrin antibody (Sigma, P8047) diluted 1:1000 in FACS buffer and incubated at 4° C. for 45 min. The cells were washed once with 150 μl FACS buffer and then with 150 μl DPBS, resuspended in 150 μl DPBS containing DAPI (Biotium, 40043) at 1:10.000 and read on the BDCantoll or iQue (Intellicyt). Data was analysed using FlowJo v10 to determine the signal geometric mean for PE for live cells in each well.

EC50 (read off the curve) [pM] | Binder
~1000 | B1
~1000 | B2
~1000 | B3

These binders were tested against T2, human MSLN-His-Avi (human, UniProt Q13421 296-598, single biotin (BirA) in the biotinylated form) (assay: SPR (Biacore), hMSLN-His-Avi immobilised at 50 RU, mAb injected).
T2 construct: Monomeric, made in HEK293-6E; Used both immobilised and in solution; also called hMSLN-His-Avi; biotinylated hMSLN-His-Avi
T2 sequence (Q13421 other isoform, or with tags, fused parts or gaps): as the sequence (Q13421 other isoform, or with tags, fused parts or gaps limits assumed) above
Procedure: (§2) Human MSLN-His-Avi was immobilised on flow cell 2 on a CM5 Series S BIAcore sensor chip (GE Healthcare, BR100530) using an amine coupling kit (GE Healthcare, BR10050) to approximately 200 response units (RU). Flow cell 1 was left blank for subtraction. HEK293-6E supernatants or purified proteins were adjusted with HBS-EP+(GE Healthcare) to approximately 50 nM anti-MSLN mAb per sample. Samples were injected over flow cell 1 and 2 for 2.5 min at 30 μl/min and then allowed to dissociate in HBS-EP buffer for 2.5 min. Regeneration was achieved by injecting 10 mM glycine pH 1.5 (GE Healthcare, BR100354) for 30 seconds at a rate of 30 μl/min. Subtracted data (flow cell 2−flow cell 1) were analysed using BIAevaluation 3.2 Software (GE Healthcare).
(§3) For each bin described in 2.1.3, the binding kinetics were determined using the same method as described in section 2.1.2, except that human or cyno MSLN-His-Avi was immobilised at 50 or 100 RU. Clones were tested at a concentration range of 81 nM to 0.33 nM in 3-fold dilutions.

Kd [pM] | Binder
210 | B1
1240 | B2
770 | B3

What follows are binders tested against T2, human MSLN-His-Avi (assay: ELISA, hMSLN-His-Avi coated at 1 ug/ml).

EC50 [pM] | maximum binding signal | Binder
~500 | 3 | B1
~500 | 3 | B2
~500 | 3 | B3

The binders below were run against T2, human MSLN-His-Avi (assay: SPR (Biacore), hMSLN-His-Avi immobilised at 100 RU, mAb injected).
Procedure: as §2, §3

Kd [pM] | Binder
120 | B1
760 | B2
230 | B3

These binders were tested against T1, cell surface human mesothelin (MSLN) (assay: flow cytometry, NCI-H226 cells (n = 3)).
Procedure: as §1

EC50 [pM] | Emax (MFI signal) [MFI] | Binder
1080 | 13600 | B1
1220 | 11900 | B2
620 | 14600 | B3

What follows are binders tested against T2, human MSLN-His-Avi (assay: competition ELISA: mAb pre-mixed with biotinylated hMSLN-His-Avi, binding to coated MUC16 (competitor)).
Procedure: Plates were washed 3 times with 1× PBS and blocked with 300 μl PBS containing 2% Tween20 and 2% Marvel Milk. A concentration of anti-MSLN mAbs (0.23 nM to 500 nM, 3-fold dilutions) were pre-mixed with biotinylated hMSLN-His-Avi antigen (final concentration 2 μg/ml) in a volume of 100 μl for 1 hr at room temperature. After removal of the blocking solution, the mAb/MSLN mixture was added to the plates and incubated for 1 hr at room temperature. Plates were washed 3 times with PBST (1× PBS and 0.05% Tween20) and incubated with streptavidin-HRP (Thermo Scientific, 21126, 1:1000 dilution in 1× PBS) for 1 hr at room temperature. Finally, plates were washed 3 times with PBST and 3 times with PBS. […] Absorbances were read at 450-630 nm (Gen5 software, BioTek).

IC50 [pM] | Binder
5200 | B1
4400 | B2
2900 | B3
